The record followed here is patent publication US4701455A, “Biopterin analogs” (Burroughs Wellcome Co., priority 1983, dated 1987).

The series deals with C[C@H](O)[C@H](O)[C@H]1CNc2nc(N)[nH]c(=O)c2N1. As to the kind of experiment: purified protein, by the assay type. Particulars: other: Km of substrate (tyrosine) with the pterin as cofactor.

Sequence of Tyrosine hydroxylase (Homo sapiens) (chain, as listed by the source): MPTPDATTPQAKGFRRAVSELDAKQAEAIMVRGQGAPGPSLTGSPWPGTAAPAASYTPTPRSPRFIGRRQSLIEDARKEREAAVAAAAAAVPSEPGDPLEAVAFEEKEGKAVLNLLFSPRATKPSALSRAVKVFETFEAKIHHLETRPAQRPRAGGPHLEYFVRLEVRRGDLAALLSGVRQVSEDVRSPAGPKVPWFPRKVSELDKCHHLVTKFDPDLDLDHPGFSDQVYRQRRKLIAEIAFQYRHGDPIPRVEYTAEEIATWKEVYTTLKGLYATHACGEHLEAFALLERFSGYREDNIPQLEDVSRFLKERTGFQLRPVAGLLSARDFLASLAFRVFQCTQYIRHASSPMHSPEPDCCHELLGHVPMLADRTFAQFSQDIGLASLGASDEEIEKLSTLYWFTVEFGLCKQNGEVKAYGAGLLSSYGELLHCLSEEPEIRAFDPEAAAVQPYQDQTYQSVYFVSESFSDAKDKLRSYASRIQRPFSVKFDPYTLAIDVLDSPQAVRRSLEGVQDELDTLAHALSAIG

One may read the Km as the substrate concentration at which the rate is half of its maximum. Tyrosine hydroxylase (Homo sapiens): the Km was 16.0 µM.
